# ± gives the uncertainty stated by the source.
# B1: Steroid hormone receptor ERR2, residues 100 to 176; numbered along this chain, O95718 (parent)
# chain: KRLCLVCGDIASGYHYGVASCEACKAFFKRTIQGNIEYSCPATNECEITKRRRKSCQACRFMKCLKVGMLKEGVRLD
# Variants of: B1
# Experiment: abundance fitness (aPCA) (normalised: wild type 0, dead -1); higher = more abundant; growth selection in yeast, the domain comes from the species named
# Details: Homo sapiens
row,Variant,abundance fitness
1,KRLCLVYGDIASGYHYGVASCEACKAFFKRTIQGNIEYSCPATNECEITKRRRKSCQACRFMKCLKVGMLKEGVRLD [C7Y],-0.993 ± 0.32
2,KRLCLVWGDIASGYHYGVASCEACKAFFKRTIQGNIEYSCPATNECEITKRRRKSCQACRFMKCLKVGMLKEGVRLD [C7W],-1.22 ± 0.28
3,KRLCLVSGDIASGYHYGVASCEACKAFFKRTIQGNIEYSCPATNECEITKRRRKSCQACRFMKCLKVGMLKEGVRLD [C7S],-0.726 ± 0.097
4,KRLCLVVGDIASGYHYGVASCEACKAFFKRTIQGNIEYSCPATNECEITKRRRKSCQACRFMKCLKVGMLKEGVRLD [C7V],-0.976 ± 0.12
5,KRLCLVRGDIASGYHYGVASCEACKAFFKRTIQGNIEYSCPATNECEITKRRRKSCQACRFMKCLKVGMLKEGVRLD [C7R],-0.586 ± 0.069
6,KRLCLVQGDIASGYHYGVASCEACKAFFKRTIQGNIEYSCPATNECEITKRRRKSCQACRFMKCLKVGMLKEGVRLD [C7Q],-0.918 ± 0.16
7,KRLCLVPGDIASGYHYGVASCEACKAFFKRTIQGNIEYSCPATNECEITKRRRKSCQACRFMKCLKVGMLKEGVRLD [C7P],-0.673 ± 0.14
8,KRLCLVCLDIASGYHYGVASCEACKAFFKRTIQGNIEYSCPATNECEITKRRRKSCQACRFMKCLKVGMLKEGVRLD [G8L],-0.091 ± 0.046
9,KRLCLVCWDIASGYHYGVASCEACKAFFKRTIQGNIEYSCPATNECEITKRRRKSCQACRFMKCLKVGMLKEGVRLD [G8W],-0.374 ± 0.071
10,KRLCLVCTDIASGYHYGVASCEACKAFFKRTIQGNIEYSCPATNECEITKRRRKSCQACRFMKCLKVGMLKEGVRLD [G8T],-0.077 ± 0.061
11,KRLCLVCVDIASGYHYGVASCEACKAFFKRTIQGNIEYSCPATNECEITKRRRKSCQACRFMKCLKVGMLKEGVRLD [G8V],-1.11 ± 0.17
12,KRLCLVCPDIASGYHYGVASCEACKAFFKRTIQGNIEYSCPATNECEITKRRRKSCQACRFMKCLKVGMLKEGVRLD [G8P],-0.725 ± 0.16
13,KRLCLVCEDIASGYHYGVASCEACKAFFKRTIQGNIEYSCPATNECEITKRRRKSCQACRFMKCLKVGMLKEGVRLD [G8E],0.006 ± 0.06
14,KRLCLVCMDIASGYHYGVASCEACKAFFKRTIQGNIEYSCPATNECEITKRRRKSCQACRFMKCLKVGMLKEGVRLD [G8M],-0.201 ± 0.071
15,KRLCLVCADIASGYHYGVASCEACKAFFKRTIQGNIEYSCPATNECEITKRRRKSCQACRFMKCLKVGMLKEGVRLD [G8A],-0.101 ± 0.055
16,KRLCLVCHDIASGYHYGVASCEACKAFFKRTIQGNIEYSCPATNECEITKRRRKSCQACRFMKCLKVGMLKEGVRLD [G8H],-0.102 ± 0.1
17,KRLCLVCSDIASGYHYGVASCEACKAFFKRTIQGNIEYSCPATNECEITKRRRKSCQACRFMKCLKVGMLKEGVRLD [G8S],-0.117 ± 0.052
18,KRLCLVCCDIASGYHYGVASCEACKAFFKRTIQGNIEYSCPATNECEITKRRRKSCQACRFMKCLKVGMLKEGVRLD [G8C],-0.381 ± 0.1

row,Variant,abundance fitness
1,KRLCLVCNDIASGYHYGVASCEACKAFFKRTIQGNIEYSCPATNECEITKRRRKSCQACRFMKCLKVGMLKEGVRLD [G8N],-0.758 ± 0.18
2,KRLCLVCDDIASGYHYGVASCEACKAFFKRTIQGNIEYSCPATNECEITKRRRKSCQACRFMKCLKVGMLKEGVRLD [G8D],-0.096 ± 0.092
3,KRLCLVCQDIASGYHYGVASCEACKAFFKRTIQGNIEYSCPATNECEITKRRRKSCQACRFMKCLKVGMLKEGVRLD [G8Q],0.086 ± 0.058
4,KRLCLVCIDIASGYHYGVASCEACKAFFKRTIQGNIEYSCPATNECEITKRRRKSCQACRFMKCLKVGMLKEGVRLD [G8I],-0.636 ± 0.3
5,KRLCLVCFDIASGYHYGVASCEACKAFFKRTIQGNIEYSCPATNECEITKRRRKSCQACRFMKCLKVGMLKEGVRLD [G8F],-0.274 ± 0.15
6,KRLCLVCYDIASGYHYGVASCEACKAFFKRTIQGNIEYSCPATNECEITKRRRKSCQACRFMKCLKVGMLKEGVRLD [G8Y],-0.132 ± 0.12
7,KRLCLVCGCIASGYHYGVASCEACKAFFKRTIQGNIEYSCPATNECEITKRRRKSCQACRFMKCLKVGMLKEGVRLD [D9C],-0.829 ± 0.22
8,KRLCLVCGPIASGYHYGVASCEACKAFFKRTIQGNIEYSCPATNECEITKRRRKSCQACRFMKCLKVGMLKEGVRLD [D9P],-0.894 ± 0.25
9,KRLCLVCGSIASGYHYGVASCEACKAFFKRTIQGNIEYSCPATNECEITKRRRKSCQACRFMKCLKVGMLKEGVRLD [D9S],-0.36 ± 0.069
10,KRLCLVCGVIASGYHYGVASCEACKAFFKRTIQGNIEYSCPATNECEITKRRRKSCQACRFMKCLKVGMLKEGVRLD [D9V],-0.43 ± 0.063
11,KRLCLVCGHIASGYHYGVASCEACKAFFKRTIQGNIEYSCPATNECEITKRRRKSCQACRFMKCLKVGMLKEGVRLD [D9H],-0.365 ± 0.19
12,KRLCLVCGFIASGYHYGVASCEACKAFFKRTIQGNIEYSCPATNECEITKRRRKSCQACRFMKCLKVGMLKEGVRLD [D9F],-0.492 ± 0.14
13,KRLCLVCGNIASGYHYGVASCEACKAFFKRTIQGNIEYSCPATNECEITKRRRKSCQACRFMKCLKVGMLKEGVRLD [D9N],-0.365 ± 0.14
14,KRLCLVCGYIASGYHYGVASCEACKAFFKRTIQGNIEYSCPATNECEITKRRRKSCQACRFMKCLKVGMLKEGVRLD [D9Y],-0.351 ± 0.11
15,KRLCLVCGMIASGYHYGVASCEACKAFFKRTIQGNIEYSCPATNECEITKRRRKSCQACRFMKCLKVGMLKEGVRLD [D9M],-0.216 ± 0.074
16,KRLCLVCGWIASGYHYGVASCEACKAFFKRTIQGNIEYSCPATNECEITKRRRKSCQACRFMKCLKVGMLKEGVRLD [D9W],-0.301 ± 0.072
17,KRLCLVCGLIASGYHYGVASCEACKAFFKRTIQGNIEYSCPATNECEITKRRRKSCQACRFMKCLKVGMLKEGVRLD [D9L],-0.454 ± 0.067
